Source: the supplement of paper PMC9112550, “Optimization of the antimicrobial peptide Bac7 by deep mutational scanning” (BMC Biology, 2022)

The sequences below were run on Escherichia coli TOP10 (assay: shrunken log2 fold change of peptide-encoding DNA abundance (4.5 h post-induction vs induction); higher = less antimicrobial activity (less host growth inhibition)). Conditions: time post-induction: 4.5 h; library: site-saturation at positions 5, 18, 19, 20.
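Note: peptides expressed intracellularly from a pBAD plasmid library in pooled LB shake-flask culture, induced with 0.3% L-arabinose, DNA abundance read by NGS, three biological replicates, DESeq2 with apeglm shrinkage.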

Sequence	shrunken log2 fold change
RRIRWRPPRLPRPRPRPSGMPRP	0.104
RRIRHRPPRLPRPRPRPQMAPRP	-0.191
RRIRCRPPRLPRPRPRPTMPPRP	-0.281
RRIRRRPPRLPRPRPRPRAQPRP	0.5
RRIRQRPPRLPRPRPRPRIQPRP	-0.0402
RRIRERPPRLPRPRPRPCGTPRP	-0.00758
RRIRERPPRLPRPRPRPPFSPRP	-0.241
RRIRNRPPRLPRPRPRPALHPRP	-0.296
RRIRDRPPRLPRPRPRPAVSPRP	-0.000946
RRIRYRPPRLPRPRPRPPFLPRP	-0.178
RRIRMRPPRLPRPRPRPRKTPRP	0.514
RRIRYRPPRLPRPRPRPCHPPRP	-0.669
RRIRQRPPRLPRPRPRPELFPRP	-0.0927
RRIRERPPRLPRPRPRPNPWPRP	-0.0758
RRIRYRPPRLPRPRPRPIVYPRP	-1.23
RRIRDRPPRLPRPRPRPPCDPRP	-0.0123
RRIRYRPPRLPRPRPRPLVFPRP	-0.439
RRIRYRPPRLPRPRPRPCNQPRP	-0.224
RRIRGRPPRLPRPRPRPGSHPRP	0.12
RRIRMRPPRLPRPRPRPRQWPRP	0.0789
RRIRSRPPRLPRPRPRPPTVPRP	0.153
RRIRWRPPRLPRPRPRPQCLPRP	-0.073
RRIRKRPPRLPRPRPRPLCWPRP	0.52
RRIRERPPRLPRPRPRPWPAPRP	0.238
RRIRLRPPRLPRPRPRPTSLPRP	-0.112

Sequence	shrunken log2 fold change
RRIRFRPPRLPRPRPRPASCPRP	0.0375
RRIRSRPPRLPRPRPRPYNSPRP	-0.287
RRIRPRPPRLPRPRPRPPWFPRP	0.32
RRIRERPPRLPRPRPRPGWDPRP	0.0203
RRIRKRPPRLPRPRPRPRWYPRP	0.275
RRIRTRPPRLPRPRPRPIRDPRP	-0.288
RRIRKRPPRLPRPRPRPQVWPRP	-0.0233
RRIRVRPPRLPRPRPRPSIKPRP	-0.552
RRIRMRPPRLPRPRPRPFVMPRP	-0.0957
RRIRLRPPRLPRPRPRPEWNPRP	-0.083
RRIRRRPPRLPRPRPRPVWIPRP	0.148
RRIRVRPPRLPRPRPRPNCEPRP	3.97
RRIRIRPPRLPRPRPRPPEAPRP	0.276
RRIRARPPRLPRPRPRPHMGPRP	0.0766
RRIRKRPPRLPRPRPRPWSMPRP	-0.0905
RRIRLRPPRLPRPRPRPHWSPRP	0.0161
RRIRVRPPRLPRPRPRPHPDPRP	0.015
RRIRDRPPRLPRPRPRPHVTPRP	-0.631
RRIRWRPPRLPRPRPRPHRCPRP	0.000478
RRIRIRPPRLPRPRPRPEKAPRP	-0.0795
RRIRMRPPRLPRPRPRPYHVPRP	-0.065
RRIRRRPPRLPRPRPRPYWWPRP	-0.0898
RRIRNRPPRLPRPRPRPRQNPRP	-0.118
RRIRYRPPRLPRPRPRPNPSPRP	-0.0272
RRIRRRPPRLPRPRPRPWACPRP	0.0634

Sequence	shrunken log2 fold change
RRIRGRPPRLPRPRPRPRHCPRP	0.764
RRIRTRPPRLPRPRPRPMTQPRP	0.13
RRIRERPPRLPRPRPRPAMQPRP	0.0339
RRIRDRPPRLPRPRPRPDDVPRP	0.276
RRIRIRPPRLPRPRPRPQCQPRP	-0.153
RRIRPRPPRLPRPRPRPPDLPRP	0.366
RRIRARPPRLPRPRPRPTHYPRP	0.702
RRIRYRPPRLPRPRPRPFCGPRP	-0.133
RRIRFRPPRLPRPRPRPMQQPRP	-0.0268
RRIRSRPPRLPRPRPRPAPHPRP	0.276
RRIRLRPPRLPRPRPRPIYCPRP	-0.527
RRIRLRPPRLPRPRPRPFWPPRP	0.184
RRIRVRPPRLPRPRPRPEALPRP	-0.00459
RRIRMRPPRLPRPRPRPVWYPRP	-0.0263
RRIRCRPPRLPRPRPRPMRFPRP	0.249
RRIRQRPPRLPRPRPRPIMEPRP	-0.0496
RRIRYRPPRLPRPRPRPRPGPRP	0.219
RRIRSRPPRLPRPRPRPRQFPRP	0.165
RRIRVRPPRLPRPRPRPYGVPRP	-0.153
RRIRDRPPRLPRPRPRPYDRPRP	-0.0075
RRIRIRPPRLPRPRPRPWRIPRP	-0.409
RRIRYRPPRLPRPRPRPRQGPRP	-0.074
RRIRKRPPRLPRPRPRPMKGPRP	-0.156
RRIRSRPPRLPRPRPRPARFPRP	0.181
RRIRQRPPRLPRPRPRPWCRPRP	-0.325

Sequence	shrunken log2 fold change
RRIRQRPPRLPRPRPRPCCPPRP	-0.192
RRIRQRPPRLPRPRPRPDVKPRP	-0.0135
RRIRWRPPRLPRPRPRPRWLPRP	0.224
RRIRVRPPRLPRPRPRPLVSPRP	0.339
RRIRIRPPRLPRPRPRPFQFPRP	-0.237
RRIRIRPPRLPRPRPRPKNFPRP	-0.0927
RRIRYRPPRLPRPRPRPGGTPRP	-0.0623
RRIRLRPPRLPRPRPRPPAHPRP	0.445
RRIRIRPPRLPRPRPRPTNCPRP	-0.649
RRIRERPPRLPRPRPRPRARPRP	0.233
RRIRPRPPRLPRPRPRPWQLPRP	0.224
RRIRLRPPRLPRPRPRPTILPRP	0.0347
RRIRWRPPRLPRPRPRPQHDPRP	0.202
RRIRFRPPRLPRPRPRPFNDPRP	0.00352
RRIRLRPPRLPRPRPRPLSCPRP	-0.0916
RRIRWRPPRLPRPRPRPAREPRP	0.138
RRIRHRPPRLPRPRPRPMTGPRP	-0.218
RRIRNRPPRLPRPRPRPAYHPRP	-0.385
RRIRRRPPRLPRPRPRPGVSPRP	0.249
RRIRDRPPRLPRPRPRPMLNPRP	0.21
RRIRWRPPRLPRPRPRPDSKPRP	-0.133
RRIRRRPPRLPRPRPRPYEPPRP	-0.846
RRIRIRPPRLPRPRPRPGFQPRP	-0.106
RRIRLRPPRLPRPRPRPMPRPRP	0.291
RRIRKRPPRLPRPRPRPTIFPRP	0.2

Sequence	shrunken log2 fold change
RRIRLRPPRLPRPRPRPRYNPRP	-0.093
RRIRCRPPRLPRPRPRPKAYPRP	-0.0053
RRIRYRPPRLPRPRPRPRFNPRP	-0.808
RRIRYRPPRLPRPRPRPVMCPRP	-0.266
RRIRDRPPRLPRPRPRPIKEPRP	-0.015
RRIRSRPPRLPRPRPRPPPGPRP	0.891
RRIRNRPPRLPRPRPRPGTRPRP	0.00131
RRIRRRPPRLPRPRPRPQDWPRP	0.171
RRIRTRPPRLPRPRPRPKQNPRP	0.638
RRIRSRPPRLPRPRPRPYSMPRP	-0.721
RRIRCRPPRLPRPRPRPGHVPRP	0.0304
RRIRCRPPRLPRPRPRPTNPPRP	-0.429
RRIRFRPPRLPRPRPRPLESPRP	-0.00313
RRIRNRPPRLPRPRPRPGGRPRP	0.0809
RRIRDRPPRLPRPRPRPRMDPRP	-0.0354
RRIRRRPPRLPRPRPRPDKRPRP	-0.0396
RRIRSRPPRLPRPRPRPTFLPRP	-0.0423
RRIRYRPPRLPRPRPRPIFHPRP	-0.456
RRIRNRPPRLPRPRPRPDWGPRP	0.128
RRIRIRPPRLPRPRPRPFIHPRP	-0.872
RRIRKRPPRLPRPRPRPQRNPRP	0.0463
RRIRDRPPRLPRPRPRPTEIPRP	0.23
RRIRIRPPRLPRPRPRPNLIPRP	-0.654
RRIRYRPPRLPRPRPRPFSWPRP	-0.235
RRIRFRPPRLPRPRPRPYEIPRP	-0.241

Sequence	shrunken log2 fold change
RRIRMRPPRLPRPRPRPDVTPRP	0.109
RRIRLRPPRLPRPRPRPFVKPRP	-0.225
RRIRNRPPRLPRPRPRPTTKPRP	-0.0801
RRIRFRPPRLPRPRPRPDNRPRP	-0.0149
RRIRNRPPRLPRPRPRPRLLPRP	0.0984
RRIRPRPPRLPRPRPRPMHTPRP	-0.0538
RRIRSRPPRLPRPRPRPCELPRP	0.0778
RRIRMRPPRLPRPRPRPRFRPRP	0.784
RRIRARPPRLPRPRPRPVSMPRP	0.229
RRIRYRPPRLPRPRPRPWEPPRP	-0.0182
RRIRNRPPRLPRPRPRPAGTPRP	0.0756
RRIRFRPPRLPRPRPRPWVPPRP	0.0548
RRIRQRPPRLPRPRPRPRGHPRP	0.342
RRIRYRPPRLPRPRPRPADVPRP	-0.127
RRIRLRPPRLPRPRPRPPNAPRP	0.121
RRIRLRPPRLPRPRPRPRWYPRP	-0.206
RRIRKRPPRLPRPRPRPIYCPRP	-0.0201
RRIRCRPPRLPRPRPRPGWTPRP	0.0289
RRIRKRPPRLPRPRPRPGWFPRP	0.139
RRIRERPPRLPRPRPRPFQPPRP	-0.311
RRIRGRPPRLPRPRPRPEREPRP	1.1
RRIRKRPPRLPRPRPRPQFYPRP	-0.555
RRIRLRPPRLPRPRPRPFKRPRP	-0.09
RRIRVRPPRLPRPRPRPPSHPRP	-0.0316
RRIRPRPPRLPRPRPRPATMPRP	0.0647
